The target in assay [1] is fluorescently labeled TLR4 (recombinant) (UniProt O00206 24-839, fluorescently labeled). Kind of assay: other fluorescence titration; fluorescently labeled TLR4 or CYBB titrated with unlabeled NAMPT; recombinant proteins; Kd by curve fit analysis. To be noted: both partners purified.
Assay [2] has as its target fluorescently labeled CYBB (recombinant) (UniProt P04839 1-570, fluorescently labeled). The assay is described as above. To be noted: both partners purified.

Chain of fluorescently labeled CYBB (recombinant) (P04839 whole entry): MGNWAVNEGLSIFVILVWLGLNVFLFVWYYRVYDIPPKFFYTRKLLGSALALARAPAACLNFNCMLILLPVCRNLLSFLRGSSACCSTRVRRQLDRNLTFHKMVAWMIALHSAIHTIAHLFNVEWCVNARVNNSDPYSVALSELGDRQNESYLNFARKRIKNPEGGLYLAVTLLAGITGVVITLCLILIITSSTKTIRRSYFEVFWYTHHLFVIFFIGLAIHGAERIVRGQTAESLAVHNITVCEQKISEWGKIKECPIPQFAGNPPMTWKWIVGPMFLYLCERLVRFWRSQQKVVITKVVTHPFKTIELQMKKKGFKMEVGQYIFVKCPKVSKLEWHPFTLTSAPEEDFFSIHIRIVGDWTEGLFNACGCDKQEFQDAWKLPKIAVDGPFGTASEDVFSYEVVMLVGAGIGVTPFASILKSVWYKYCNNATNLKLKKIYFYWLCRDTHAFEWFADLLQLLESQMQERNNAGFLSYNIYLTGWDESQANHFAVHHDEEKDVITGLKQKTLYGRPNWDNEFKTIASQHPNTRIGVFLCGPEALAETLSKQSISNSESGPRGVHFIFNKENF

B1: recombinant NAMPT protein (natural protein, UniProt P43490 1-491, looked up)
chain: MNPAAEAEFNILLATDSYKVTHYKQYPPNTSKVYSYFECREKKTENSKLRKVKYEETVFYGLQYILNKYLKGKVVTKEKIQEAKDVYKEHFQDDVFNEKGWNYILEKYDGHLPIEIKAVPEGFVIPRGNVLFTVENTDPECYWLTNWIETILVQSWYPITVATNSREQKKILAKYLLETSGNLDGLEYKLHDFGYRGVSSQETAGIGASAHLVNFKGTDTVAGLALIKKYYGTKDPVPGYSVPAAEHSTITAWGKDHEKDAFEHIVTQFSSVPVSVVSDSYDIYNACEKIWGEDLRHLIVSRSTQAPLIIRPDSGNPLDTVLKVLEILGKKFPVTENSKGYKLLPPYLRVIQGDGVDINTLQEIVEGMKQKMWSIENIAFGSGGGLLQKLTRDLLNCSFKCSYVVTNGLGINVFKDPVADPNKRSKKGRLSLHRTPAGNFVTLEEGKGDLEEYGQDLLHTVFKNGKVTKSYSFDEIRKNAQLNIELEAAHH
notes: recombinant NAMPT protein added to BMDMs and precipitated with anti-His; The His tag is known only from the anti-His precipitation; also called rNAMPT; eNAMPT; source: recombinant
Regarding B1, the dissociation constant Kd in assay [1] was determined as 219 nM; in assay [2] it was 896 nM.

The values above are taken from paper PMC9774280, “Colon-Targeted eNAMPT-Specific Peptide Systems for Treatment of DSS-Induced Acute and Chronic Colitis in Mouse” (Antioxidants, 2022).
